In patent publication US20130209481A1 (University of California, published 2013):

Experiments:
[1] = target: T1, EphA2 on the surface of MDAMB231 cells (native EphA2) (human, UniProt P29317 24-976); assay: flow cytometry of phage antibody on MDAMB231 cells
T1 construct: whole, on cells; from NP40 cell extracts in the immunoprecipitation; also called native antigen; receptor from cell extracts of MDAMB231 cells

[2] = target: T2, yeast displayed EphA2 extracellular domain (EphA2 ECD, aa 25-534) (Homo sapiens (Human), UniProt P29317 25-534); assay: flow cytometry of monoclonal phage antibody on yeast displayed EphA2 ECD
T2 construct: also called Y-EphA2; Y-EphA2 ECD
T2 sequence (P29317 25-534 limits assumed): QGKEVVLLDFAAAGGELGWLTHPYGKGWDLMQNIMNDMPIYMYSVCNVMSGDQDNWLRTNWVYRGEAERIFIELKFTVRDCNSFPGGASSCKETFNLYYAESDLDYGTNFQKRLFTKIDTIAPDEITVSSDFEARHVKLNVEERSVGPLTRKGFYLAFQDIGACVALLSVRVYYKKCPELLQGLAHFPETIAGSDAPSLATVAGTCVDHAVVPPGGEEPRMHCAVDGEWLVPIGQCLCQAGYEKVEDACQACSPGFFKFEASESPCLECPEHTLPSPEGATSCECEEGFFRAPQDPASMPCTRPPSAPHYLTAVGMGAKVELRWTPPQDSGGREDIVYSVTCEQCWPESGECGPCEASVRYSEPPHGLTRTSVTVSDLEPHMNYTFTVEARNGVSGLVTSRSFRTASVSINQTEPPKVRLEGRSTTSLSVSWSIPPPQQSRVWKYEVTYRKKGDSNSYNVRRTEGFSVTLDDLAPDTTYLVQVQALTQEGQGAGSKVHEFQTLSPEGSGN

[3] = target: T2, yeast displayed EphA2 extracellular …; assay: fd phage antibody selected on yeast displayed antigen; screened by flow cytometry as in Examples 4 and 5
[4] = target: T3, yeast displayed CD44 link domain (CD44 ECD domain 1, aa 21-169) (Homo sapiens (Human), UniProt P16070 21-169); assay: flow cytometry of monoclonal phage antibody on yeast displayed CD44 domain 1
T3 construct: also called Y-CD44 D1; Y-CD44 ECD D1
T3 sequence (P16070 21-169 limits assumed): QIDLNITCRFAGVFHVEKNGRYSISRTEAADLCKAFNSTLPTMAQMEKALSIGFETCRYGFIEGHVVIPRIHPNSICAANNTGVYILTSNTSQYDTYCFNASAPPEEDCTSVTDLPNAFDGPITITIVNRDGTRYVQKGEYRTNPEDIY

[5] = target: T2, yeast displayed EphA2 extracellular …; assay: phage recovery: 10^11 phage with 10^8 yeast cells, elution and titration
[6] = target: T2, yeast displayed EphA2 extracellular …; assay: yeast displayed antigen incubated with 10^9 phage, titer of bound phage
[7] = target: T3, yeast displayed CD44 link domain (CD44 …); assay: yeast displayed antigen incubated with 10^9 phage, titer of bound phage (mismatched pair)
[8] = target: T3, yeast displayed CD44 link domain (CD44 …); assay: fd phage antibody selected on yeast displayed antigen; screened by flow cytometry as in Examples 4 and 5
[9] = target: T2, yeast displayed EphA2 extracellular …; assay: phagemid antibody selected on yeast displayed antigen; screened by flow cytometry as in Examples 4 and 5
[10] = target: T1, EphA2 on the surface of MDAMB231 cells …; assay: flow cytometry competition on MDAMB231 cells; competitors: phage antibodies D2-1A7 and D2-1A9

T1 sequence (P29317 24-976): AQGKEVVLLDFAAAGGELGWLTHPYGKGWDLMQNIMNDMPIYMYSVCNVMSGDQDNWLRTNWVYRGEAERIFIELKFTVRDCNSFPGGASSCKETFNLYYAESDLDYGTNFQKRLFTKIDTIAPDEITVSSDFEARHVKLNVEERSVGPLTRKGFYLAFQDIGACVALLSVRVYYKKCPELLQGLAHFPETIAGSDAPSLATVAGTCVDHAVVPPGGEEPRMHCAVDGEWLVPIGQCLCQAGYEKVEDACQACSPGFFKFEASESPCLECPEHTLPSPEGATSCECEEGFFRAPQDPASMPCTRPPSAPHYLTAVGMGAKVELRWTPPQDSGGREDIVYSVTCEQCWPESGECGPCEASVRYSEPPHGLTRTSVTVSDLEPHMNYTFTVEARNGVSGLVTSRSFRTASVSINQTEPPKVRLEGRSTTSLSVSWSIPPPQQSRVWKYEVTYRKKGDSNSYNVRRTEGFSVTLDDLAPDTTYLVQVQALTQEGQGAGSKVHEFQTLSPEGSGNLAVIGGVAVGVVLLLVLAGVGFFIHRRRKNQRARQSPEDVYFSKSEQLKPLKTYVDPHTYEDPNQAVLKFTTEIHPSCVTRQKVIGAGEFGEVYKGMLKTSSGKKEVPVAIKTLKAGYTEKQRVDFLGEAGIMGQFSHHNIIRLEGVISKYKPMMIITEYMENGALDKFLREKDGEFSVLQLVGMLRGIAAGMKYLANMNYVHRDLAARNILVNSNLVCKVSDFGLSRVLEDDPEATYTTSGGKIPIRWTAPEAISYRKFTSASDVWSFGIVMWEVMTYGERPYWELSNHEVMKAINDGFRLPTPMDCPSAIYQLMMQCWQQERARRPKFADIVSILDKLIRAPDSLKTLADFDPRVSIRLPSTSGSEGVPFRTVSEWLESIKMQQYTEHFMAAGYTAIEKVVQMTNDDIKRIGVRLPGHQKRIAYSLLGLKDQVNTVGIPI

B1: anti-EphA2 human scFv D2-1A9 (scFv, V domains shown)
VH: QVQLVESGGGLIQPGGSLKLSCAASGFTVSNSYMSWVRQAPGKGLEWVAVIYSAGNTYYADSVKGRFTISRDTSNNTVHLQMNSLRPEDTAVYYCAREGSFGYDYRGQGTLVTVSS
VL: DIVMTQSPGTLSLSPGERATLSCRASQSVSSSFLGWYQQKPGQAPRLLIYGASSRATGIPDRFSGSGSGTDFTLTISRLEPEDFAVYYCQQYGISPLTFGGGTKVEIKR
notes: also called anti-EphA2 phage D2-1A9
B1: binds [1]; binds [2].

B2: A3H9 (scFv)
scFv: QVLLVESGGGVVQAGASLRVSCAASGFSLTSYGMHWVRQAPGKGLEWVAFISSDGSDKYYVDSVKGRFTISRDTSKNMMYLQMNSLTTEDTAVYYCAKDWGSNWYLFDYWGQGTLVTVSSGGGGSGGGGSGGGGSQSVLTQPPSASETPGQRVTISCSGSSSNIGANTVHWYQQFPGTAPKLLIYSYSQRPSGVPDRFSDSKSGTSASLAISGLQSEDEADYYCAAWDDILNGWVFGGGTKVTVLG
notes: also called fd phage antibody A3H9
B2: binds [3].

B3: anti-CD44 human scFv F2-1A6 (scFv, V domains shown)
VH: QVQLVQSGAEVKKPGESLKISCKGSGYSFTSYWIGWVRQMPGKGLEWMGIIYPGDSDTRYSPSFQGQVTISADKSISTAYLQWSSLKASDTAMYYCARRLHGPFYFDYWGQGTLVTVSS
VL: SELTQDPAVSVALGQTVRITCQGDSLRSYYASWYQQKPGQAPLLVIYGKNIRPSGIPDRFSGSSSGNTASLTITGAQAEDEADYYCNSRDSSGNHVVFGGGTKLTVLG
notes: soluble scFv with C-terminal (His)6 tag in the immunoprecipitation; also called anti-CD44 phage F2-1A6
B3: binds [4].

B4: anti-EphA2 human scFv 2D6 (scFv, V domains shown)
VH: QVQLQESGGGLVQPGGSLRLSCAASGFTFSSYAMSWVRQAPGKGLDWVSIIYNGDNTYYADSVKGRFTISRDNSKNSLYLQMNSLRAEDTAVYYCARWSGTSYDYWGQGTLVTVSS
VL: SELTQDPAVSVALGQTVRITCQGDSLRSYYASWYQQKPGQAPLLVIYGENNRPSGIPDRFSGSSSGNTASLTITGAQAEDEADYYCHSRDSSGTHLRVFGGGTKVTVLG
notes: scFv; soluble scFv with C-terminal (His)6 tag (pUC119mycHis) in the immunoprecipitation; also called anti-EphA2 phage antibody 2D6; PhAb-EphA2
B4 was tested, and the “fold recovery of phage against recovery from yeast displaying an irrelevant scFv (Y-CON)” value [5] was over 10000 fold, the “PhAb Output/Input” value [6] was 0.06 ratio of output/input phage and the “PhAb Output/Input” value [7] was 1e-06 ratio of output/input phage.

B5: anti-EphA2 human scFv D2-1A7 (scFv, V domains shown)
VH: QVQLQQSGGGVVQPGRSLRLSCAASGFTFSSYAMHWVRQAPGKGLEWVAVISYDGSNKYYADSVKGRFTISRDNSKNTLYLQMNSLRAEDTAVYYCARASVGATGPFDIWGQGTMVTVSS
VL: SELTQDPAVSVALGQTVSITCQGDSLRSYYASWYQQKPGQAPLLVIYGENNRPSGIPDRFSGSSSGNTASLTITGAQAEDEADYYCNSRDSSGTHLTVFGGGTKLTVLG
notes: soluble scFv with C-terminal (His)6 tag in the immunoprecipitation; also called anti-EphA2 phage D2-1A7
B5: binds [1]; binds [2].

B6: anti-EphA2 human scFv D2-1B1 (scFv, V domains shown)
VH: QVQLQESGGGVVQPGRSLRLSCAASGFTFSSYGMHWVRQAPGKGLEWVAVISYDGSNKYYADSVKGRFTISRDNSKNTLYLQMNSLRAEDTAVYYCAKVIAGGAYYGSADYWGQGTLVTVSS
VL: SELTQDPAVSVALGQTVKITCQGDSLRTYYASWYQQKPGQAPVLVIYGENSRPSGIPDRFSGSSSGNTASLTITGAQAEDEADYYCHSRDSSGTHLRVFGGGTKLTVLG
B6: binds [1]; binds [2].

B7: E8F11 (scFv)
scFv: QVQLQQSGGGLVQPGGSLRLSCAASGFTFSSYAMSWVRQAPVKGLEWVSAISGSGGSTYYADSVKGRFTISRDNSKNTLYLQMNSLRIEDTAVYYCGRHLSSGSSVDYWGQGTLVTVSSGGGGSGGGGSGGGGSSELTQPPSASGSPGQSVTISCTGTSSDVGGYNYVSWYQQRPGYAPKLMIYDVSNRPSGVSNRFSGSKSGNSASLDISGLQSEDEADYYCAAWDDSLREFLFGTGTKVTVLG
notes: also called fd phage antibody E8F11
B7: binds [8].

B8: 1A12 (scFv)
scFv: QVQLQESGGGLVQPGGFLRLSCAASGFTFSSYGMHWVRQTPGKGLEWVSYISSSSSYTNYADSVKGRFTISRDNSKNTLYLQMNSLRAEDTAVYYCARDNWYFDLWGRGTLVTVSSGGGGSGGGGSGGGGSDVVMTQSPSTLSASVGDRVSITCRASESISRWLAWYQQKPGKAPKALIYKASSLESGVPSRFSGSGSATEFTLTINSLQPDDFATYYCQQYSSYPLTFGQGTKVDIKR
notes: also called phagemid antibody 1A12
B8: binds [9].

B9: recombinant mouse Ephrin A1 with human Fc fusion protein (R&D Systems) (Fc fusion, UniProt P52793 19-182, looked up)
chain: DRHIVFWNSSNPKFREEDYTVHVQLNDYLDIICPHYEDDSVADAAMERYTLYMVEHQEYVACQPQSKDQVRWNCNRPSAKHGPEKLSEKFQRFTPFILGKEFKEGHSYYYISKPIYHQESQCLKLKVTVNGKITHNPQAHVNPQEKRLQADDPEVQVLHSIGYS
notes: Bought reagent; also called rEphrinA1-human Fc fusion protein; not shown: human Fc
With B9 the “fold difference between the IC50 of ephrin A1 against D2-1A7 and against D2-1A9” value [10] was 9 fold.

B10: E8H7 (scFv)
scFv: QVQLQESGGGLVQPGGSLRLSCSASGFTFSSYAMHWVRQAPGKGLEYVSAISSNGGSTYYADSVKGRFTISRDNSKNTLYLQMSSLRAEDTAVYYCVARLEWLPLAWDYWGQGTLVTVSSGGGGSGGGGSGGGGSSELTQDPAVSVALGQTVRITCQGDSLRSYYASWYQQKPGQAPVLVIYGKNNRPSGIPDRFSGSSSGNTASLTITGAQAEDEADYYCNSRDSSGNHKVFGGGTKLTVLG
notes: also called fd phage antibody E8H7
B10: binds [8].
